Measurements published in US5891679A, “TNF-alpha muteins and a process for preparing them” (priority 1993, dated 1999).
“Also recorded” adds a separate entry of the source.

Columns and labels:
[1] = system: Trypanosoma brucei brucei; test: In vitro trypanocidal assay, T. brucei brucei; type: cell-based; conditions: for mortality of trypanosomes: data not shown
Procedure: (§1) The Trypanosoma brucei brucei AnTat 1.1 (EATRO 1125) pleomorphic bloodstream form was kindly provided to us by Dr. N. Van Meirvenne of the Institute for Tropical Medecine, Antwerp, Belgium, and the Trypanosoma brucei rhodesiense Trp 11 pleomorphic bloodstream form was kindly provided to us by Dr. E. Bajyana Songa (Dept. Molecular Biology, Free University of Brussels, Belgium)
(§2) After 5 h of incubation, the number of live (=moving) parasites was assessed (counting chamber) and compared the control wells in which only incubation medium was added to the trypanosomes. […] All treatments were done in quadruplicate and all reported in vitro trypanolysis experiments were repeated at least 3 times.

[2] = system: 3LL-R Lewis lung carcinoma cells; test: Experimental metastasis inducing capacity on TNF resistant 3LL-R Lewis lung carcinoma cells; type: in vivo, mouse (C57bl/6); conditions: for general condition of mice / mean lung weight: 17 days; for mean lung weight: 5 μg/mouse i.p. 5 hours prior to 3LL-R cells; for metastasis enhancing potential compared with wild type TNF: 3LL-R
Procedure: At this time, all mice were killed and the lung weight as well as the amount of cancer cell nodules in the lung was assessed.

C57BL/6 mice = test: TNF-α-induced lethal shock in mice; type: in vivo, mouse (C57BL/6)
Procedure: Female 10-weeks old C57BL/6 mice (Iffa Credo, France) were used in all in vivo TNF-induced lethal shock experiments.
Intravenous (i.v.) injection of 10-week-old C57BL/6 mice with 10 μg/mouse of mTNF-α causes death within 48 hours.
Ten weeks old C57BL/6 mice (5 to 6/group) were injected with different doses of wild type or mutant mouse TNF-α and the postinjection survival time was then assessed.

[3] = In vivo half life of wild type and tip-deleted TNF-α (serum concentration)
Procedure: An ELISA assay to measure the protein concentration of the wild type and tip-deleted or tip-mutated mouse TNF-α protein was developed. […] Subsequently, the plates were washed once with washing buffer (PBS, 0.05% Tween-20) and the remaining binding sites were blocked for at least one hour at 37° C. with 300 μl per well of PBS buffer supplemented with 1% BSA and 0.1% NaN3. Dilutions of sample or standard mTNF-α (0.01 to 10 ng/ml mTNF-α), made in 100 μl of PBS supplemented with 1% BSA, 1% rabbit serum, and 0.1% mertiolate are then added to each well and incubated for 2 hours at 37° C. […] Subsequently, the plates are washed four times with washing buffer wherafter 100 μl of straptavidin-horseradish peroxidase (Jackson Immunoresearch Labs), which has been diluted in sample diluent to a concentration of 100 ng/ml is added and incubated for 30 minutes at 37° C. […] The reaction is stopped by adding 100 μl per well of 2N H2SO4 wherafter the optical density is read at dual wavelength (450/595 nm).
Female 8 weeks old C57bL/6 mice (6 mice/group--Charles Rivers Deutshland) were injected intraperitoneally with 1 μg/mouse of either wild type mouse TNF-α or tip deleted TNF-α. Subsequently, the mice were bled 0.5, 5, 10, 15, 30, 60, 120, 180, or 240 minutes post-injection.

[4] = system: human interleukin 8 (IL8); test: IL8 production by hMVECb cells; type: cell-based; conditions: for IL8 concentration: 24 hours; for IL8 induction compared with wild type: human endothelial brain cells
[5] = system: human interleukin-6 (IL6); test: IL6 production by hMVECb cells; type: cell-based; conditions: for IL6 concentration: 24 hours
Procedure: Subsequently, the IL6 concentration in the supernatant of the cells was assessed using a commercially available hIL6 ELISA kit (Medgenix, Belgium).

[6] = system: Trypanosoma brucei rhodesiense; test: In vitro trypanocidal assay, T. brucei rhodesiense; type: cell-based; conditions: 5 h; for mortality of trypanosomes: data not shown
Procedure: as §1, §2

L929 cells [7] = test: L929 cell killing (cytotoxic/cytolytic/tumoricidal) assay; type: cell-based, mouse
Procedure: L929 fibrosarcoma cells were obtained from the Rega Institute, Leuven, Belgium.
After 18 h of culture at 37° C., viability of the cell cultures was assessed by dye uptake analysis. […] The plates were read spectrophotometrically at 577 nm with a Titertek multiscan MCC340 ELISA Reader (Flow Laboratories, McLean, Va.).

L929 cells [8] = conditions: cited from earlier work
LPS-induced shock = conditions: cited from earlier work
[9] = mTNF-α 1000 pg/ml, +p55 (5 μg/ml)
[10] = mTNF-α 10000 pg/ml, +p55 (5 μg/ml)
[11] = Experiment 1, 0.5 minutes, 1 μg/mouse i.p.
[12] = Experiment 1, 5 minutes, 1 μg/mouse i.p.
[13] = Experiment 1, 10 minutes, 1 μg/mouse i.p.
[14] = Experiment 1, 15 minutes, 1 μg/mouse i.p.
[15] = Experiment 1, 30 minutes, 1 μg/mouse i.p.
[16] = Experiment 1, 60 minutes, 1 μg/mouse i.p.
[17] = Experiment 1, 120 minutes, 1 μg/mouse i.p.
[18] = Experiment 1, 180 minutes, 1 μg/mouse i.p.
[19] = Experiment 1, 240 minutes, 1 μg/mouse i.p.
[20] = Experiment 2, 0.5 minutes, 1 μg/mouse i.p.
[21] = Experiment 2, 15 minutes, 1 μg/mouse i.p.
[22] = Experiment 2, 30 minutes, 1 μg/mouse i.p.
[23] = Experiment 2, 60 minutes, 1 μg/mouse i.p.
[24] = Experiment 2, 120 minutes, 1 μg/mouse i.p.
[25] = Experiment 2, 180 minutes, 1 μg/mouse i.p.
[26] = Experiment 2, 240 minutes, 1 μg/mouse i.p.

mTNF-α: Purified recombinant mouse tumor necrosis factor-alpha, produced in E. coli
concentration at which 50% of the animals (parasites) are killed ([1]; T. brucei brucei, 5 h): 5000 pg/mL | trypanocidal specific activity ([1]; in vitro trypanocidal assay): 2×10^5 U/mg of protein | Trypanocidal activity (% lysis) ([1]; mTNF-α 100 pg/ml, +p55 (5 μg/ml soluble p55 hTNF-α receptor)): 25 ± 3% | Trypanocidal activity (% lysis) ([1]; mTNF-α 100 pg/ml, -p55): 30 ± 2% | Trypanocidal activity (% lysis) [1, 9]: 41 ± 4% | Trypanocidal activity (% lysis) ([1]; mTNF-α 1000 pg/ml, -p55): 45 ± 5% | Trypanocidal activity (% lysis) [1, 10]: 56 ± 3% | Trypanocidal activity (% lysis) ([1]; mTNF-α 10000 pg/ml, -p55): 60 ± 4% | general condition of mice [2]: all suffered from severe respiration problems | mean lung weight [2]: 1088.2 ± 315.7 | lethal dose (C57BL/6 mice; C57BL/6 mice): 10 μg/mouse | time to death (C57BL/6 mice; i.v. 10 μg/mouse): ≤ 48 h | concentration TNF-α [3, 11]: 1000 ng/mL | concentration TNF-α [3, 12]: 880 ng/mL | concentration TNF-α [3, 13]: 650 ng/mL | concentration TNF-α [3, 14]: 500 ng/mL | concentration TNF-α [3, 15]: 420 ng/mL | concentration TNF-α [3, 16]: 320 ng/mL | concentration TNF-α [3, 17]: 20 ng/mL | concentration TNF-α [3, 18]: 10 ng/mL | concentration TNF-α [3, 19]: 0 ng/mL | concentration TNF-α [3, 20]: 1000 ng/mL | concentration TNF-α [3, 21]: 550 ng/mL | concentration TNF-α [3, 22]: 500 ng/mL | concentration TNF-α [3, 23]: 480 ng/mL | concentration TNF-α [3, 24]: 20 ng/mL | concentration TNF-α [3, 25]: 0 ng/mL | concentration TNF-α [3, 26]: 0 ng/mL | IL8 concentration ([4]; 333 pg/ml, experiment 1): 1050 pg/mL | IL8 concentration ([4]; 333 pg/ml, experiment 2): 1700 pg/mL | IL8 concentration ([4]; 1000 pg/ml, experiment 1): 1680 pg/mL | IL8 concentration ([4]; 1000 pg/ml, experiment 2): 1800 pg/mL | IL8 concentration ([4]; 1666 pg/ml, experiment 1): 1200 pg/mL | IL8 concentration ([4]; 1666 pg/ml, experiment 2): 1650 pg/mL | IL6 concentration ([5]; 333 pg/ml, experiment 1): 1520 pg/mL | IL6 concentration ([5]; 333 pg/ml, experiment 2): 1900 pg/mL | IL6 concentration ([5]; 1000 pg/ml, experiment 1): 1250 pg/mL | IL6 concentration ([5]; 1000 pg/ml, experiment 2): 1400 pg/mL | IL6 concentration ([5]; 1666 pg/ml, experiment 1): 1220 pg/mL | IL6 concentration ([5]; 1666 pg/ml, experiment 2): 1300 pg/mL | concentration at which 50% of the animals (parasites) are killed [6]: 5000 pg/mL | specific activity (L929 cells [7]; bioactivity on L929 cells, purified wild type): ~2×10^8 U/mg | Tumoricidal activity (% lysis) (L929 cells [7]; mTNF-α 100 pg/ml, +p55 (5 μg/ml)): 0 ± 1% | Tumoricidal activity (% lysis) (L929 cells [7]; mTNF-α 100 pg/ml, -p55): 40 ± 2% | Tumoricidal activity (% lysis) (L929 cells [7]; [9]): 0 ± 1% | Tumoricidal activity (% lysis) (L929 cells [7]; mTNF-α 1000 pg/ml, -p55): 92 ± 3% | Tumoricidal activity (% lysis) (L929 cells [7]; [10]): 93 ± 3% | Tumoricidal activity (% lysis) (L929 cells [7]; mTNF-α 10000 pg/ml, -p55): 98 ± 4% | specific activity (L929 cells [7]; purified recombinant, produced in E. coli, assay not stated): 10^8 units/mg

uromodulin: glycoprotein which binds TNF-α via its lectin-like domain
effect on TNF-α cytotoxic/tumoricidal activity (L929 cells [8]): does not block the tumoricidal activity of TNF-α | effect on LPS-/TNF-/endotoxin-induced shock in vivo (LPS-induced shock): able to potently inhibit the TNF-induced shock in vivo; also recorded: able to potently inhibit the LPS-induced shock in vivo

B1: mouse interleukin 1α: mouse interleukin 1α (protein, UniProt P01582 115-270, looked up)
Interleukin-1 alpha: SAPYTYQSDLRYKLMKLVRQKFVMNDSLNQTIYQDVDKHYLSTTWLNDLQQEVKFDMYAYSSGGDDSKYPVTLKISDSQLFVSAQGEDQPVLLKELPETPKLITGSETDLIFFWKSINSKNYFTSAAYPELFIATKEQSRVHLARGLPSMTDFQIS
mortality of trypanosomes ([1]; T. brucei brucei, 5 h): do not cause any mortality | mortality of trypanosomes [6]: do not cause any mortality

B2: hTNF-β: Human recombinant TNF-β (lymphotoxin) (protein, UniProt P01374 35-205, looked up)
Lymphotoxin-alpha: LPGVGLTPSAAQTARQHPKMHLAHSTLKPAAHLIGDPSKQNSLLWRANTDRAFLQDGFSLSNNSLLVPTSGIYFVYSQVVFSGKAYSPKATSSPLYLAHEVQLFSSQYPFHVPLLSSQKMVYPGLQEPWLHSMYHGAAFQLTQGDQLSTHTDGIPHLVLSPSTVFFGAFAL
mortality of trypanosomes ([1]; T. brucei brucei, 5 h): do not cause any mortality | mortality of trypanosomes [6]: do not cause any mortality

B3: del mTNF-α: tip-deleted mTNF-α; the TPEGAE coding sequence is deleted from the mTNF gene (protein)
chain: LRSSSQNSSDKPVAHVVANHQVEEQLEWLSQRANALLANGMDLKDNQLVVPADGLYLVYSQVLFKGQGCPDYVLLTHTVSRFAISYQEKVNLLSAVKSPCPKDLKPWYEPIYLGGVFQLEKGDQLSAEVNLPKYLDFAESGQVYFGVIAL
metastasis enhancing potential compared with wild type TNF ([2]; listed as TNF tip deletion mutant): considerably lower than that of wild type TNF | metastasis enhancing potential compared with wild type TNF ([2]; listed as mTNFα mutein carrying a deletion of the region extending from amino acids 105 to): considerably lower in vivo metastasis enhancing potential | general condition of mice [2]: looked significantly better | mean lung weight [2]: 566 ± 318 | longer half life than wild type TNF-α ([3]; 1 μg/mouse i.p.): at least 2 fold | concentration TNF-α [3, 11]: 1000 ng/mL | concentration TNF-α [3, 12]: 990 ng/mL | concentration TNF-α [3, 13]: 640 ng/mL | concentration TNF-α [3, 14]: 550 ng/mL | concentration TNF-α [3, 15]: 580 ng/mL | concentration TNF-α [3, 16]: 450 ng/mL | concentration TNF-α [3, 17]: 250 ng/mL | concentration TNF-α [3, 18]: 100 ng/mL | concentration TNF-α [3, 19]: 10 ng/mL | concentration TNF-α [3, 20]: 1000 ng/mL | concentration TNF-α [3, 21]: 600 ng/mL | concentration TNF-α [3, 22]: 500 ng/mL | concentration TNF-α [3, 23]: 500 ng/mL | concentration TNF-α [3, 24]: 330 ng/mL | concentration TNF-α [3, 25]: 240 ng/mL | concentration TNF-α [3, 26]: 20 ng/mL | in vivo half life compared with wild type ([3]; L929 cytotoxic assay and indirect ELISA): increased half life | IL8 concentration ([4]; 333 pg/ml, experiment 1): 1800 pg/mL | IL8 concentration ([4]; 333 pg/ml, experiment 2): 2450 pg/mL | IL8 concentration ([4]; 1000 pg/ml, experiment 1): 1300 pg/mL | IL8 concentration ([4]; 1000 pg/ml, experiment 2): 2200 pg/mL | IL8 concentration ([4]; 1666 pg/ml, experiment 1): 850 pg/mL | IL8 concentration ([4]; 1666 pg/ml, experiment 2): 1250 pg/mL | IL8 induction compared with wild type ([4]; listed as deletion mutant of mTNFα in the region extending from amino acids 105 to 110): induce consistently less human interleukin 8 (IL8) | IL8 induction compared with wild type ([4]; listed as tip deletion mutant): about two times more powerful in inducing the inflammatory cytokine IL8 | IL6 concentration ([5]; 333 pg/ml, experiment 1): 760 pg/mL | IL6 concentration ([5]; 333 pg/ml, experiment 2): 850 pg/mL | IL6 concentration ([5]; 1000 pg/ml, experiment 1): 1180 pg/mL | IL6 concentration ([5]; 1000 pg/ml, experiment 2): 1600 pg/mL | IL6 concentration ([5]; 1666 pg/ml, experiment 1): 1240 pg/mL | IL6 concentration ([5]; 1666 pg/ml, experiment 2): 1900 pg/mL | IL6 induction compared with wild type ([5]; hMVECb): higher induction of human interleukin-6

B4: mouse interleukin 1β: mouse interleukin 1β (protein, UniProt P10749 118-269, looked up)
Interleukin-1 beta: VPIRQLHYRLRDEQQKSLVLSDPYELKALHLNGQNINQQVIFSMSFVQGEPSNDKIPVALGLKGKNLYLSCVMKDGTPTLQLESVDPKQYPKKKMEKRFVFNKIEVKSKVEFESAEFPNWYISTSQAEHKPVFLGNNSGQDIIDFTMESVSS
mortality of trypanosomes ([1]; T. brucei brucei, 5 h): do not cause any mortality | mortality of trypanosomes [6]: do not cause any mortality
